Series [1] has as its system HeLa Kyoto. As to the kind of experiment: solubility in G1/S (NP-40 vs SDS abundance) (log2 ratio); higher = more soluble. The conditions noted are these: cell cycle stage: G1/S.
Series [2] concerns HeLa Kyoto. As to the kind of experiment: melting temperature (median over replicates), in situ; higher = more thermally stable.
Series [3] concerns HeLa Kyoto. In words: solubility change mitosis vs G1/S (difference of NP-40 vs SDS log2 ratios) (log2 ratio difference); higher = more soluble in mitosis.
In series [4] the test system is HeLa Kyoto. As to the kind of experiment: thermal stability score vs G1/S (z-score of summed log2 fold changes over temperatures); higher = more thermally stable than in G1/S.
The mark [5] stands for this setting: cell cycle stage: early G1 (4.5 h after nocodazole release).

This note sets out measurements from the supplement of paper PMC5998384.
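Throughout, for melting temperature (median over replicates), in situ: HeLa Kyoto cells synchronized by double thymidine or nocodazole block, proteins quantified by TMT10plex mass spectrometry, three independent biological replicates.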
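Throughout, for solubility change mitosis vs G1/S (difference of NP-40 vs SDS log2 ratios): synchronized HeLa Kyoto cells (double thymidine block for G1/S, nocodazole release for mitosis), protein amounts in NP-40 versus SDS lysates quantified by mass spectrometry, three biological replicates.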
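Throughout, for solubility in G1/S (NP-40 vs SDS abundance): HeLa Kyoto cells arrested at G1/S by double thymidine block, proteins quantified by TMT10plex mass spectrometry in mild NP-40 versus SDS extracts, three biological replicates.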
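Throughout, for thermal stability score vs G1/S (z-score of summed log2 fold changes over temperatures): synchronized HeLa Kyoto cells, proteins quantified by TMT10plex mass spectrometry, three biological replicates, mitosis taken 0.5 h after nocodazole release, G1/S directly after double thymidine block.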

In the case of “MTTETGPDSEVKKAQEEAPQQPEAAAAVTTPVTPAGHGHPEANSNEKHPSQQDTRPAEQSLDMEEKDYSEADGLSERTTPSKAQKSPQKIAKKYKSAICRVTLLDASEYECEVEKHGRGQVLFDLVCEHLNLLEKDYFGLTFCDADSQKNWLDPSKEIKKQIRSSPWNFAFTVKFYPPDPAQLTEDITRYYLCLQLRADIITGRLPCSFVTHALLGSYAVQAELGDYDAEEHVGNYVSELRFAPNQTRELEERIMELHKTYRGMTPGEAEIHFLENAKKLSMYGVDLHHAKDSEGIDIMLGVCANGLLIYRDRLRINRFAWPKILKISYKRSNFYIKIRPGEYEQFESTIGFKLPNHRSAKRLWKVCIEHHTFFRLVSPEPPPKGFLVMGSKFRYSGRTQAQTRQASALIDRPAPFFERSSSKRYTMSRSLDGAEFSRPASVSENHDAGPDGDKRDEDGESGGQRSEAEEGEVRTPTKIKELKPEQETTPRHKQEFLDKPEDVLLKHQASINELKRTLKEPNSKLIHRDRDWERERRLPSSPASPSPKGTPEKANERAGLREGSEEKVKPPRPRAPESDTGDEDQDQERDTVFLKDNHLAIERKCSSITVSSTSSLEAEVDFTVIGDYHGSAFEDFSRSLPELDRDKSDSDTEGLLFSRDLNKGAPSQDDESGGIEDSPDRGACSTPDMPQFEPVKTETMTVSSLAIRKKIEPEAVLQTRVSAMDNTQQVDGSASVGREFIATTPSITTETISTTMENSLKSGKGAAAMIPGPQTVATEIRSLSPIIGKDVLTSTYGATAETLSTSTTTHVTKTVKGGFSETRIEKRIIITGDEDVDQDQALALAIKEAKLQHPDMLVTKAVVYRETDPSPEERDKKPQES [EPB41L1]”, the “solubility in G1/S (log2)” value in the series on HeLa Kyoto [1] is -0.0349. For the same substance, the values for the melting temperature in the series with HeLa Kyoto [2] (cell cycle stage: G1/S) and in the series with HeLa Kyoto [2] (cell cycle stage: mitosis) were 49.6 °C and 50 °C, respectively. In addition, in the series on HeLa Kyoto [3], the “solubility change mitosis (log2)” value was -0.0516. Further, the thermal stability score in the series with HeLa Kyoto [4] (setting [5]) is 0.332; in the series on HeLa Kyoto [4] (cell cycle stage: mitosis), 0.235.
Take TJP1: in the series with HeLa Kyoto [1], the “solubility in G1/S (log2)” value was -0.366. Further, the melting temperature was determined as 49.3 °C in the series on HeLa Kyoto [2] (cell cycle stage: G1/S) and 50.3 °C with HeLa Kyoto [2] (cell cycle stage: mitosis). Moreover, the “solubility change mitosis (log2)” value with HeLa Kyoto [3] was found to be 0.126. Moreover, the thermal stability score is -0.423 in the series on HeLa Kyoto [4] (setting [5]) and 1.4 with HeLa Kyoto [4] (cell cycle stage: mitosis).
For the substance “MELPSGPGPERLFDSHRLPGDCFLLLVLLLYAPVGFCLLVLRLFLGIHVFLVSCALPDSVLRRFVVRTMCAVLGLVARQEDSGLRDHSVRVLISNHVTPFDHNIVNLLTTCSTPLLNSPPSFVCWSRGFMEMNGRGELVESLKRFCASTRLPPTPLLLFPEEEATNGREGLLRFSSWPFSIQDVVQPLTLQVQRPLVSVTVSDASWVSELLWSLFVPFTVYQVRWLRPVHRQLGEANEEFALRVQQLVAKELGQTGTRLTPADKAEHMKRQRHPRLRPQSAQSSFPPSPGPSPDVQLATLAQRVKEVLPHVPLGVIQRDLAKTGCVDLTITNLLEGAVAFMPEDITKGTQSLPTASASKFPSSGPVTPQPTALTFAKSSWARQESLQERKQALYEYARRRFTERRAQEAD [AUP1]”, the “solubility in G1/S (log2)” value in the series with HeLa Kyoto [1] was -0.262. In addition, the melting temperature with HeLa Kyoto [2] (cell cycle stage: G1/S) was determined as 50.9 °C; in the series on HeLa Kyoto [2] (cell cycle stage: mitosis), 50.6 °C. In the series on HeLa Kyoto [3], the “solubility change mitosis (log2)” value is -0.102. Besides, the thermal stability score was determined as 0.525 in the series on HeLa Kyoto [4] (setting [5]) and 0.836 in the series on HeLa Kyoto [4] (cell cycle stage: mitosis).
For “MRAVLDTADIAIVALYFILVMCIGFFAMWKSNRSTVSGYFLAGRSMTWVAIGASLFVSNIGSEHFIGLAGSGAASGFAVGAWEFNALLLLQLLGWVFIPIYIRSGVYTMPEYLSKRFGGHRIQVYFAALSLILYIFTKLSVDLYSGALFIQESLGWNLYVSVILLIGMTALLTVTGGLVAVIYTDTLQALLMIIGALTLMIISIMEIGGFEEVKRRYMLASPDVTSILLTYNLSNTNSCNVSPKKEALKMLRNPTDEDVPWPGFILGQTPASVWYWCADQVIVQRVLAAKNIAHAKGSTLMAGFLKLLPMFIIVVPGMISRILFTDDIACINPEHCMLVCGSRAGCSNIAYPRLVMKLVPVGLRGLMMAVMIAALMSDLDSIFNSASTIFTLDVYKLIRKSASSRELMIVGRIFVAFMVVISIAWVPIIVEMQGGQMYLYIQEVADYLTPPVAALFLLAIFWKRCNEQGAFYGGMAGFVLGAVRLILAFAYRAPECDQPDNRPGFIKDIHYMYVATGLFWVTGLITVIVSLLTPPPTKEQIRTTTFWSKKNLVVKENCSPKEEPYKMQEKSILRCSENNETINHIIPNGKSEDSIKGLQPEDVNLLVTCREEGNPVASLGHSEAETPVDAYSNGQAALMGEKERKKETDDGGRYWKFIDWFCGFKSKSLSKRSLRDLMEEEAVCLQMLEETRQVKVILNIGLFAVCSLGIFMFVYFSL [SLC5A3]”, in the series with HeLa Kyoto [1], the “solubility in G1/S (log2)” value is -0.218. For the same substance, the melting temperature with HeLa Kyoto [2] (cell cycle stage: G1/S) was found to be 57.3 °C; with HeLa Kyoto [2] (cell cycle stage: mitosis), 55.9 °C. The “solubility change mitosis (log2)” value with HeLa Kyoto [3] turned out to be 0.0469. In addition, the thermal stability score in the series with HeLa Kyoto [4] (setting [5]) worked out at 0.7; in the series with HeLa Kyoto [4] (cell cycle stage: mitosis), 0.41.
Regarding “MERAGATSRGGQAPGFLLRLHTEGRAEAARVQEQDLRQWGLTGIHLRSYQLEGVNWLAQRFHCQNGCILGDEMGLGKTCQTIALFIYLAGRLNDEGPFLILCPLSVLSNWKEEMQRFAPGLSCVTYAGDKEERACLQQDLKQESRFHVLLTTYEICLKDASFLKSFPWSVLVVDEAHRLKNQSSLLHKTLSEFSVVFSLLLTGTPIQNSLQELYSLLSFVEPDLFSKEEVGDFIQRYQDIEKESESASELHKLLQPFLLRRVKAEVATELPKKTEVVIYHGMSALQKKYYKAILMKDLDAFENETAKKVKLQNILSQLRKCVDHPYLFDGVEPEPFEVGDHLTEASGKLHLLDKLLAFLYSGGHRVLLFSQMTQMLDILQDYMDYRGYSYERVDGSVRGEERHLAIKNFGQQPIFVFLLSTRAGGVGMNLTAADTVIFVDSDFNPQNDLQAAARAHRIGQNKSVKVIRLIGRDTVEEIVYRKAASKLQLTNMIIEGGHFTLGAQKPAADADLQLSEILKFGLDKLLASEGSTMDEIDLESILGETKDGQWVSDALPAAEGGSRDQEEGKNHMYLFEGKDYSKEPSKEDRKSFEQLVNLQKTLLEKASQEGRSLRNKGSVLIPGLVEGSTKRKRVLSPEELEDRQKKRQEAAAKRRRLIEEKKRQKEEAEHKKKMAWWESNNYQSFCLPSEESEPEDLENGEESSAELDYQDPDATSLKYVSGDVTHPQAGAEDALIVHCVDDSGHWGRGGLFTALEKRSAEPRKIYELAGKMKDLSLGGVLLFPVDDKESRNKGQDLLALIVAQHRDRSNVLSGIKMAALEEGLKKIFLAAKKKKASVHLPRIGHATKGFNWYGTERLIRKHLAARGIPTYIYYFPRSKSAVLHSQSSSSSSRQLVP [CHD1L]”, in the series on HeLa Kyoto [1], the “solubility in G1/S (log2)” value was -0.105. Also, the melting temperature came out at 46.9 °C with HeLa Kyoto [2] (cell cycle stage: G1/S) and 49 °C with HeLa Kyoto [2] (cell cycle stage: mitosis). For the same substance, the “solubility change mitosis (log2)” value in the series on HeLa Kyoto [3] was -0.0342. The thermal stability score amounted to 0.274 in the series with HeLa Kyoto [4] (setting [5]) and 0.334 in the series on HeLa Kyoto [4] (cell cycle stage: mitosis).
